Substrate: CC1=CC(=O)CC(C)(C)[C@@]1(O)/C=C/C(C)=C\C(=O)O
Assay: Activity of Arabidopsis thaliana recombinant CYP707A3

B1: Abscisic acid 8'-hydroxylase 3 (Arabidopsis thaliana) (protein)
chain: MDFSGLFLTLSAAALFLCLLRFIAGVRRSSSTKLPLPPGTMGYPYVGETFQLYSQDPNVFFAAKQRRYGSVFKTHVLGCPCVMISSPEAAKFVLVTKSHLFKPTFPASKERMLGKQAIFFHQGDYHSKLRKLVLRAFMPDAIRNMVPHIESIAQESLNSWDGTQLNTYQEMKTYTFNVALISILGKDEVYYREDLKRCYYILEKGYNSMPINLPGTLFHKAMKARKELAQILANILSKRRQNPSSHTDLLGSFMEDKAGLTDEQIADNIIGVIFAARDTTASVLTWILKYLADNPTVLEAVTEEQMAIRKDKKEGESLTWEDTKKMPLTYRVIQETLRAATILSFTFREAVEDVEYEGYLIPKGWKVLPLFRNIHHNADIFSDPGKFDPSRFEVAPKPNTFMPFGSGIHSCPGNELAKLEISVLIHHLTTKYRWSIVGPSDGIQYGPFALPQNGLPIALERKP
  Km: 0.71 µM

From ChEMBL document CHEMBL1140664, “Asymmetrical ligand binding by abscisic acid 8'-hydroxylase” (Bioorg Med Chem, 2007)
